The text below walks through data of patent US20240360436A1.

T1: TIGIT antigen (UniProt Q495A1)
T1 sequence (looked up): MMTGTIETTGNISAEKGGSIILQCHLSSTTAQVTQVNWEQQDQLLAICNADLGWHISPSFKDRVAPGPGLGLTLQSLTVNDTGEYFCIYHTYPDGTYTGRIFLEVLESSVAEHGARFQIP

B1: TT357 (Fab, part only; not given: Tiragolumab light chain, V domains shown, part only)
VH: QVQLVQSGGGLVQPGGSLRLSCAASGFTFSRYWMTWVRQAPGKGLEWVANTNQDGSETYYVDSVKGRFTISRDNAKNSLYLQMNSLRAEDTAVYYCARRWSGYHDGSGYDYFDYWDQGTLVTVSS
B2: TT385 (Fab, part only; not given: Tiragolumab light chain, V domains shown, part only)
VH: EVQLVESGPEVKKPGTSVKVSCKASGLTFSRSAVQWLRQARGQRLEWIGWVDVASSNTNYAQKFQERVTITRDMSTSTAYMELSNLRTEDTAVYYCAADLYGFWGVQGFDPWGQGTMVTVSS
B3: TT321 (Fab, part only; not given: Tiragolumab light chain, V domains shown, part only)
VH: EVQLVESGGGLVQPGGSLRLSCAASGFTFNMYAMSWVRQGPGKGLEWVSTISGGAGSTYYADSVKGRFTISRDNSKNTVYLQMNSLRAEDTAVYYCASEVVAATTLDYWGQGTTVTVSS

The assay has as its target T1, TIGIT antigen. Kind of assay: ELISA on TIGIT antigen, OD405.
B1 returned an ELISA OD405 Reading of 0.471 OD405.

On to B2, for which the ELISA OD405 Reading stood at 0.474 OD405.

B3: the ELISA OD405 Reading is 0.547 OD405.
